Laboratory results from paper PMC3105379.
Read-outs that look alike come from different tables or passages of the source.

Legend:
Assay in all cases: other fluorescence titration
[1] = biological target: BIQG^6R, variant of BIQ with replacement R for the G at position 6
[2] = biological target: BIQG^6M, variant of BIQ with replacement M for the G at position 6
[3] = biological target: BIQG^6A, variant of BIQ with replacement A for the G at position 6
[4] = biological target: BIQ, fluorescent reporter containing an IQ domain sequence derived from neuromodulin (UniProt P17677)
[5] = biological target: BIQG^6A, variant of BIQ with replacement A for the G at position 6; remark: listed apart in the source
[6] = biological target: BIQ, fluorescent reporter containing an IQ domain sequence derived from neuromodulin (UniProt P17677); remark: listed apart in the source

- Kd [1]: 400 nM
- Kd [2]: 400 nM
- Kd [3]: 900 nM
- Kd [4]: 2900 nM
- Kd [5]: 5400 nM
- Kd [6]: 2400 nM
Substance: calmodulin (native CaM) (from UniProt P0DP23 1-149) (natural protein)
